The source of these data is patent US4757012A, “Ascorbic acid intermediates and process enzymes” (Genentech, Inc., priority 1984, dated 1988).

Substrate in data set [1]: NC(=O)C1=CN([C@@H]2O[C@H](COP(=O)(O)OP(=O)(O)OC[C@H]3O[C@@H](n4cnc5c(N)ncnc54)[C@H](OP(=O)(O)O)[C@@H]3O)[C@@H](O)[C@H]2O)C=CC1
As to the kind of experiment: 2,5-DKG reductase kinetic / substrate specificity assay with purified enzyme. Conditions: other: cofactor NADPH, 150 mM sodium phosphate buffer, pH 6.4, 25° C. The data set is classed as biochemical, Corynebacterium sp. ATCC 31090. The source says:
(§1) The following assay conditions were used to determine kinetic parameters: […]

Substrate in data set [2]: O=C(O)C(=O)[C@@H](O)[C@H](O)C(=O)CO
The description is as above. Conditions: other: substrate 2,5-DKG, 150 mM sodium phosphate buffer, pH 6.4, 25° C. Type of data set: biochemical, Corynebacterium sp. ATCC 31090.
Description: as §1

Broadly, the Km is the concentration of substrate that gives half-maximal velocity.

B1: 2,5-DKG reductase (Corynebacterium sp. ATCC 31090) (protein)
chain: MTVPSIVLNDGNSIPQLGYGVFKVPPADTQRAVEEALEVGYRHIDTAAIYGNEEGVGAAIAASGIARDDLFITTKLWNDRHDGDEPAAAIAESLAKLALDQVDLYLVHWPTPAADNYVHAWEKMIELRAAGLTRSIGVSNHLVPHLERIVAATGVVPAVNQIELHPAYQQREITDWAAAHDVKIESWGPLGQGKYDLFGAEPVTAAAAAHGKTPAQAVLRWHLQKGFVVFPKSVRRERLEENLDVFDFDLTDTEIAAIDAMDPGDGSGRVSAHPDEVD
notes: made in house; host or cells: Corynebacterium sp; ATCC 31090 (natural producer, native enzyme purified from cell paste, not recombinant)
On to B1, for which the Km in data set [1] turned out to be 0.0337 mM; in data set [2], 15.5 mM.
